In US9982265B2, “Inhibition of Bruton's tyrosine kinase (Btk) in the lung to treat severe lung inflammation and lung injury” (BOARD OF REGENTS, THE UNIVERSITY OF TEXAS SYSTEM, priority 2014, dated 2018):

Assays:
thrombomodulin (TM) [1] = assay: Thrombomodulin in BAL fluid by Western blot, LPS/IC induced ALI; format: in vivo, mice; conditions: FIG. 6D
Protocol: Western Blotting: BAL fluids were subjected to SDS PAGE electrophoresis, transferred onto PVDF membrane and further evaluated for the presence of thrombomodulin using anti-mouse TM antibody (M-17; Santa Cruz Biotechnology, Santa Cruz, Calif.). In some experiments cell culture media or cell lysates were analyzed for level of MPO or actin (EMD Millipore, Billerica, Mass. and Santa Cruz Biotechnology, respectively) or phospho-p40 phox (Santa Cruz Biotechnology).
Endothelial damage in this ALI model was also examined by assessing the release of thrombomodulin (TM), which is a membrane protein expressed on the capillary endothelium (40, 52). A Western Blot analysis of BAL fluid samples was performed (FIG. 6D) from control mice (Saline), mice with LPS/IC induced ALI, and mice treated with siRNA specific for Btk, or MMP-9, or control siRNA. The bar graph in FIG. 6D includes data from 3 experiments. For each repetition a fold over a corresponding control was calculated. Means of all repetitions as well as associated standard deviations were graphed. […] The same was true for mice that received nonspecific control siRNA (p<0.05).

alveolar neutrophils = assay: Uptake of alveolar neutrophils by mouse spleen macrophages (co-culture 1 h); format: cell-based; conditions: neutrophils from treated LPS/IC ALI mice versus ALI; FIG. 5B
Protocol: Neutrophil Apoptosis/Uptake: Purified alveolar neutrophils were evaluated for the presence of cleaved caspase 3 as done routinely in our laboratory (13). Cells mounted on cytospins were incubated with anti-mouse cleaved caspase 3 antibody (Cell Signaling Technology, Danvers, Mass.), followed by dye-conjugated secondary antibody. Fluorescence intensity of cleaved caspase 3 was analyzed as described above. In addition, alveolar neutrophils were co-cultured with mouse spleen macrophages for 1 h (43, 44), and percentage of phagocytosed neutrophils was calculated. In separate sets of experiments bone marrow neutrophils (BMPMNs) were purified according to the previously published protocol (54) and cultivated for 24 h to induce spontaneous apoptosis. Some cells were cultured in the presence of LPS and anti-KC:KC immune complexes. In other experiments, BMPMNs were treated with siRNA specific for Btk (Santa Cruz Biotechnology) conjugated to F(ab′)2 fragments of the Ly6G1A8 antibody. Similarly conjugated control siRNA (Santa Cruz Biotechnology) or F(ab′)2 fragments of the Ly6G1A8 alone served as controls.
In other experiments, purified alveolar neutrophils were co-cultured with mouse spleen macrophages for 1 h, and the percentage of phagocytosed neutrophils was assessed by counting numbers of neutrophils present inside macrophages. […]

thrombomodulin (TM) [2] = assay: Thrombomodulin in BAL fluid by Western blot, flu induced ALI; format: in vivo, mice; conditions: FIG. 13
MMP-9 = assay: Expression of MMP-9 in alveolar neutrophils of treated ALI mice, laser confocal microscopy; format: in vivo; conditions: LPS/IC ALI; FIGS. 6A and B
Protocol: Laser Confocal Microscopy: Purified alveolar neutrophils mounted on cytospins were incubated with the following primary antibodies: anti-mouse Btk, anti-mouse MyD88, anti-mouse MMP-9 (Santa Cruz Biotechnology), and anti-mouse pBtk (Invitrogen, Grand Island, N.Y.). Species specific antibodies conjugated with fluorescent dyes were subsequently applied to slides. Lung tissue sections, processed as routinely done in our laboratory (26, 28), were incubated with anti-mouse FcγRIII antibody (R&D Systems, Minneapolis, Minn.), or anti-mouse MMP-9 antibody (Santa Cruz Biotechnology), or with anti-neutrophil (Ly6G1A8) antibody (Bio X Cell, West Lebanon, N.H.) followed by fluorescence dye-conjugated secondary antibodies. Hoechst 33342 (Calbiochem, San Diego, Calif.) was employed to stain nuclei. Laser confocal microscopy was performed using PerkinElmer Ultra VIEW LCI confocal imaging system with Nikon TE2000-S fluorescence microscope and PlanApox60 immersion oil objective (numerical aperture [NA] 1.4) at room temperature. Ultra VIEW Imaging Suite software (version 5.5.0.4) was used for image processing.
Neutrophils are implicated in ALI because of various substances released from granules into the area of inflammation. MMP-9 (gelatinase B) is one of the most extensively studied MMPs in the context of ALI. […]

For “Cont siRNA: control siRNA #8 (SEQ ID NO:26/27) conjugated to F(ab′)2 fragments of Ly6G1A8 (chain 1 UUCCUCUCCACGCGCAGUACAUUUA; chain 2 AAGGAGAGGUGCGCGUCAUGUAAAU; conjugated to antibody F(ab')2 fragment, attachment not given here; one strand is listed 3' to 5')”, the “levels of thrombomodulin (TM) in BAL fluid” value (thrombomodulin (TM) [1]) was “significantly increased levels”, the “uptake (phagocytosis) of apoptotic alveolar neutrophils by macrophages” value (alveolar neutrophils) was “no effect” and the “levels of TM in BAL fluid” value (thrombomodulin (TM) [2]) was “significantly increased levels”. The “MMP-9 expression in lung neutrophils” value (MMP-9) was “detectable”.
